Source: patent US20130011380A1 (published 2013)

Columns and labels:
Test in all cases: anti-Flag IP-MS, mES nuclear extract
Tip2 = target: T1, Tip2 (mouse)
T1 construct: Gene name as printed; possibly a misprint, not resolved
Description: (§1) Mass spectrometry was used to identify the potential interactors of AID and understand the functional molecular players that orchestrate mammalian DNA demethylation. The following AID constructs were used: 1) human AID containing two tandem Flag tags at the N-terminus of the protein, cloned into the pHAGE-STEMCCA lentiviral vector, and 2) human AID containing two tandem Flag tags at the C-terminus of the protein, cloned into the pHAGE-STEMCCA lentiviral vector. Virus containing these constructs was subsequently used to infect mouse embryonic stem cells (CGR8), and stable cell lines overexpressing Flag-human AID were selected. As a control, the lentiviral vector containing only the 2× Flag tag was used.
(§2) The stable ES cell lines expressing AID and Control 2× Flag were fractionated into cytoplasmic and nuclear extracts for immunoprecipitating the AID protein using an antibody against the Flag tag. The resulting complex was subjected to mass spectrometric analyses.
(§3) TABLE 5 After immunoprecipitation, AID and the interacting proteins were identified by mass spectrometry (MS). All proteins were subjected to trypsin digestion to break them down into smaller peptides, and run through a mass spectrometer. Column C indicates the number of unique peptides of a particular protein detected by MS analysis, to be associated with the AID-Flag protein. Column D represents the number of peptides associated with the Flag only protein. The higher the number of unique peptides (>3) that are associated with AID, but not with the Flag protein, the stronger the indication of the specificity of the interaction. Columns E and F represent the associated spectra i.e. the frequency of these peptides detected in association with the AID protein as a measure of the abundance of the associated protein.

Lmo7 = Lmo7 (mouse, UniProt E9PYF4 24-1649)
Description: as §1, §2, §3

Tmpo = Tmpo (mouse)
Description: as §1, §2, §3

Sequence of Lmo7 (E9PYF4 entry or part of it): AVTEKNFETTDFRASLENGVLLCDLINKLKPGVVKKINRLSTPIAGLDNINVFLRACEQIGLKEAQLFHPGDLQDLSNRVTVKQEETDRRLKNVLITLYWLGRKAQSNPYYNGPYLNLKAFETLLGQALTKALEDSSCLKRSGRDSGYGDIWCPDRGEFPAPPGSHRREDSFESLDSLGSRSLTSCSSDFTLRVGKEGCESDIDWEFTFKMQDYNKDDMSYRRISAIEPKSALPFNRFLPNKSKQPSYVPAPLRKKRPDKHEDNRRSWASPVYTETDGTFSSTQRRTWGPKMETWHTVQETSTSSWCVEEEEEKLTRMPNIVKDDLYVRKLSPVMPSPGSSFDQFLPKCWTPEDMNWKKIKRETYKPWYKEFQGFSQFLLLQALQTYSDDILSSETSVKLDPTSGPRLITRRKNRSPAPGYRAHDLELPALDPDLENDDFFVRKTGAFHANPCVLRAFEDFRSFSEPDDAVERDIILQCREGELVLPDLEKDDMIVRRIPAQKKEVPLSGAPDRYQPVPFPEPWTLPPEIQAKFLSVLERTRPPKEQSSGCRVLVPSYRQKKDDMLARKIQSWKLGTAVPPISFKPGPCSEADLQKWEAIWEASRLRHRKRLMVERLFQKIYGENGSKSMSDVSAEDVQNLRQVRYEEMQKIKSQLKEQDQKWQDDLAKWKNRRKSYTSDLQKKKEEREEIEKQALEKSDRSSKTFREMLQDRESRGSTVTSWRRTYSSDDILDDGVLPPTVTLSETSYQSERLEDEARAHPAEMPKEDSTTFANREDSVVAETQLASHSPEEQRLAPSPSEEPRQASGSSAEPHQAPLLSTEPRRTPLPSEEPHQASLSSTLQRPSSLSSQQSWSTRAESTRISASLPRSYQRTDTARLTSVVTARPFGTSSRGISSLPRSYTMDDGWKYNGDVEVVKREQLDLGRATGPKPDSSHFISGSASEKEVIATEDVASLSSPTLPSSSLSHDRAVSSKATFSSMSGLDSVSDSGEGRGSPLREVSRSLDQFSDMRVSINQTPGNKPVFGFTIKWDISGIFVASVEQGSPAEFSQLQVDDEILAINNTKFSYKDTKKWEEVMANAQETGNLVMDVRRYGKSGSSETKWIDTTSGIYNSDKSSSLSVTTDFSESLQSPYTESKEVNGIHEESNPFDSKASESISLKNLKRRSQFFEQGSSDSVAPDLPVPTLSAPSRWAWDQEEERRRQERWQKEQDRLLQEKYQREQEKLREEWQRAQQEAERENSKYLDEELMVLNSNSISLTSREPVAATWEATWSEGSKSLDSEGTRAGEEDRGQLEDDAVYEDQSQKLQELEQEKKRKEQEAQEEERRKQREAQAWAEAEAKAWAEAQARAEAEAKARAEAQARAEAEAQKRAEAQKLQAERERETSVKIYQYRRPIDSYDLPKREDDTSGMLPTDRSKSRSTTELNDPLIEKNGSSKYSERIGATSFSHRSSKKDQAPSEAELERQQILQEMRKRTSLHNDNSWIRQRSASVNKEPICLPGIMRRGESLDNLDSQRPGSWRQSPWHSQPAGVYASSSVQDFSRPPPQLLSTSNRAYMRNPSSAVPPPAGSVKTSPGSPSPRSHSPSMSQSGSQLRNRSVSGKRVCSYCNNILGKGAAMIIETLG
T1 sequence (Q9Z0U1 whole entry): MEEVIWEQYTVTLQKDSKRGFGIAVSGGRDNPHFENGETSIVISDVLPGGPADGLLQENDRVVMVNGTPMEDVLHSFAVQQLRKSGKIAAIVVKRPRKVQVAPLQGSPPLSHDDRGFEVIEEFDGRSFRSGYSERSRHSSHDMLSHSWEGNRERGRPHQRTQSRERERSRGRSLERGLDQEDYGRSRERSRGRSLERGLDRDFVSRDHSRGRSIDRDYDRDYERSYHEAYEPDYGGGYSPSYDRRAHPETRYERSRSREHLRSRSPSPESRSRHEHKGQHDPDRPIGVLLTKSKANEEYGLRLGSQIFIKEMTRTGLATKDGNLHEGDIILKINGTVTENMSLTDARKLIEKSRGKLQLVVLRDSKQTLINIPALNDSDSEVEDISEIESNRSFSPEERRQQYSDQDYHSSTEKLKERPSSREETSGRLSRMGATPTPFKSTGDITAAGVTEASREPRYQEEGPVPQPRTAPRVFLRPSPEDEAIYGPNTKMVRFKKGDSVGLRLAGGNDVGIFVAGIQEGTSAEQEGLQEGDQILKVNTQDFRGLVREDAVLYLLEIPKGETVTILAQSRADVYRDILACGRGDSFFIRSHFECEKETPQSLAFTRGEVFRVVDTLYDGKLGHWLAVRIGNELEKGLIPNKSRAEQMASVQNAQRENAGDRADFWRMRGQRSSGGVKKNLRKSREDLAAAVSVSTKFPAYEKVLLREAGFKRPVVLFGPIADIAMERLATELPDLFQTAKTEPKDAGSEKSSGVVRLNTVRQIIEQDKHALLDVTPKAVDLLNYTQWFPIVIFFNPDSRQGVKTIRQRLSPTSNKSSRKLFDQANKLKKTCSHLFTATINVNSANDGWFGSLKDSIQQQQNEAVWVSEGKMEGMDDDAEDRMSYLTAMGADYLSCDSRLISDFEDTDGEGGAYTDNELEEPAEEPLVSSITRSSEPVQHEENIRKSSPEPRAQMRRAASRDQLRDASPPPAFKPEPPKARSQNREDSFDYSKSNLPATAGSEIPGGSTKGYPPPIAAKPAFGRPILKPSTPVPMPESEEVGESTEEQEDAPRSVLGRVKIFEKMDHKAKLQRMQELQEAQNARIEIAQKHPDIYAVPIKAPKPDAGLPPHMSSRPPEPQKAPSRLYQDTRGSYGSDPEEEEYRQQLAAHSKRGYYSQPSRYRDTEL

B1: human AID containing two tandem Flag tags (Flag-human AID) (enzyme, UniProt Q9GZX7 1-198, looked up)
chain: MDSLLMNRRKFLYQFKNVRWAKGRRETYLCYVVKRRDSATSFSLDFGYLRNKNGCHVELLFLRYISDWDLDPGRCYRVTWFTSWSPCYDCARHVADFLRGNPNLSLRIFTARLYFCEDRKAEPEGLRRLHRAGVQIAIMTFKDYFYCWNTFVENHERTFKAWEGLHENSVRLSRQLRRILLPLYEVDDLRDAFRTLGL
notes: Stably overexpressed in mouse ES cells (CGR8) from the pHAGE-STEMCCA lentiviral vector; Two constructs (N-terminal or C-terminal 2x Flag) were made; also called AID-Flag protein; not shown: two tandem Flag tags
Nucleus peptide (Tip2): 16 peptides
Nucleus spectra (Tip2): 36 spectra
Nucleus peptide (Lmo7): 15 peptides
Nucleus spectra (Lmo7): 31 spectra
Nucleus peptide (Tmpo): 4 peptides
Nucleus spectra (Tmpo): 16 spectra
